Experiments:
[1] = Biocatalytic conversions with target substrate rac-1 by NHase-CFE or cells, chiral HPLC analysis; format: biochemical; conditions: for conversion / e.e. for (S): bioconversion of 100 mM rac-1; for conversion [%]: 300 rpm overnight; for eeP [%]: excess of (S); for Conv. [%]: NHase-CFE, overnight
[2] = Substrate stability experiments: decomposition of rac-1 at different pH (Feigl-Anger paper, HPLC); format: physicochemical
Method: . In addition, the substrate was dissolved in ethanol as control. 100 μL of the rac-1 solutions were pipetted into a 96-well micro titer plate and covered with Feigl-Anger filter paper. Color development was documented by taking pictures (see FIG. 3).
To investigate the velocity of rac-1 decomposition at different pH, rac-1 was dissolved in different buffer, ranging from pH 5 to pH 10, and extracted immediately, after 2 and after 60 min, respectively, with 1 volume ethyl acetate. Extracts were dried over Na2SO4 and the supernatant evaporated using a vacuum centrifuge. The remaining substances (including rac-1) were dissolved in 100 μL of ethanol.
(R)- and (S)-1 were separated by a Chiralpak AD-H using n-heptane and ethanol in a ratio 90:10 as the mobile phase, at a flow rate of 1 mL/min for 8 min. The compounds were detected at 210 nm (DAD). Retention times of (R)- and (S)-1 were 4.2 min and 4.7 min, respectively.

Molecule: CC[C@@H](C(N)=O)N1CCCC1=O [compound 4, (S)-2-(2-oxopyrrolidin-1-yl)butane amide, reference compound]
- conversion [1]: 51.8%
- e.e. for (S) [1]: 92.1%

Molecule: CCC(C#N)N1CCCC1 (racemic) [rac-1, 2-(Pyrrolidin-1-yl)butanenitrile]
- conversion [1]: 29.3%
- e.e. for (S) [1]: 92.8%
- Percent (HPLC peak area vs zero value) ([2]; pH 5, 2 min): 57%
- Percent (HPLC peak area vs zero value) ([2]; pH 5, 1 hour): 32%
- Percent (HPLC peak area vs zero value) ([2]; pH 6, 2 min): 54%
- Percent (HPLC peak area vs zero value) ([2]; pH 6, 1 hour): 23%
- Percent (HPLC peak area vs zero value) ([2]; pH 6.5, 2 min): 47%
- Percent (HPLC peak area vs zero value) ([2]; pH 6.5, 1 hour): 22%
- Percent (HPLC peak area vs zero value) ([2]; pH 7, 2 min): 57%
- Percent (HPLC peak area vs zero value) ([2]; pH 7, 1 hour): 44%
- Percent (HPLC peak area vs zero value) ([2]; pH 7.5, 2 min): 66%
- Percent (HPLC peak area vs zero value) ([2]; pH 7.5, 1 hour): 50%
- Percent (HPLC peak area vs zero value) ([2]; pH 9, 2 min): 83%
- Percent (HPLC peak area vs zero value) ([2]; pH 9, 1 hour): 87%
- Percent (HPLC peak area vs zero value) ([2]; pH 10, 2 min): 78%
- Percent (HPLC peak area vs zero value) ([2]; pH 10, 1 hour): 86%

B1: KoNHase: nitrile hydratase from Klebsiella oxytoca (protein, listed as Klebsiella oxytoca)
alpha: MSHKHDHDHTHPPVDIELRVRALESLLQEKGLIDPAALDELIDTYEHKVGPRNGAQVVARAWSDPEYKRRLMENATAAIAELGFSGIQGEDMLVVENTPDVHNVTVCTLCSCYPWPVLGLPPVWYKSAPYRSRIVIDPRGVLAEFGLHIPENKEIRVWDSSAELRYLVLPERPAGTEGWSEAQLSELITRDSMIGTGVVSAP
beta: MNGIHDLGGMHGLGPIPTEENEPYFHHEWERRVFPLFASLFVGGHFNVDEFRHAIERMAPTEYLQSSYYEHWLHAFETLLLAKGAITVEELWGGAKPAPCKPGTPVLTQEMVSMVVSTGGSARVSHDVAPRFRVGDWVRTKNFNPTTHTRLPRYARDKVGRIEIAHGVFITPDTAAHGLGEHPQHVYSVSFTAQALWGEPRPDKVFIDLWDDYLEEA
- enantioselectivity for (S)-2 [1]: 78%
- conversion [%] ([1]; Table 4: 10 mM rac-1, NHase-CFE, 500 μL, pH 7.2, 25° C.): 5.3%
- conversion [%] ([1]; Table 5: 10 mM rac-1, NHase-CFE, pH 7.2, 37° C.): 4.4%
- conversion [%] ([1]; Table 5: 10 mM rac-1, NHase-CFE, pH 7.2, 50° C.): 3.8%
- eeP [%] ([1]; Table 5: 37° C., —^a: only (S)-amide was detected): 83 (S) %
- eeP [%] ([1]; Table 5: 50° C., —^a: only (S)-amide was detected): 78 (S) %
- Conv. [%] ([1]; Table 6: 10 mM substrate, 25° C., pH 7.2): 5.3%
- eeP [%] ([1]; Table 6: 10 mM substrate): 79 (S) %
- Conv. [%] ([1]; Table 6: 50 mM substrate, 25° C., pH 7.2): 6.2%
- eeP [%] ([1]; Table 6: 50 mM substrate): 79 (S) %
- Conv. [%] ([1]; Table 6: 100 mM substrate, 25° C., pH 7.2): 2.6%
- eeP [%] ([1]; Table 6: 100 mM substrate): 75 (S) %
- Enantioselectivity eeP [%] ([1]; pH 7.2): 79 (S) %
- enantiomeric excess of the product for (S)-2 ([1]; time study: 20 mM substrate, CFE, 25° C., pH 7.2): 81%
- activity after cobalt pre-incubation (1 or 2 mM CoCl2, 2 h, 25° C.): lower activity than the control reaction
- activity towards methacrylonitrile (MAN) hydrolysis (NHase-CFE, 114 mM substrate, pH 7.2, 25° C.): high activity
- stability after longer incubation at high pH (incubated at pH 9 or 9.5, 25° C., then MAN assay): loses activity with time at pH 9.5
- activity at high pH (methacrylonitrile hydration, carbonate buffer pH 10): still active at pH 10
- thermal stability at 37° C. (pH 8): seem stable
